Measurements as given in article PMC6158681.

Target: SpyCatcher-mi3 (Streptococcus pyogenes | Thermotoga maritima)

SpyTag-MBP showed a % conjugation of 91%.
